Results published in PMC11536930 (Nature structural & molecular biology, 2024).

What was measured:
[1] = molecular target: rat GluA2 flip(Q) isoform (unedited homotetrameric AMPA receptor), FLAG-tagged (rat, UniProt P19491-2 22-883); test: cryo-EM structure
[2] = molecular target: the molecule itself; test: cryo-EM structure

Binder | stoichiometry N [1] | binding result [2]
rat TARPγ2 (stargazin) K52E/K53E (KKEE) mutant, 1D4-tagged (natural protein) MGLFDRGVQMLLTTVGAFAAFSLMTIAVGTDYWLYSRGVCKTKSVSENETSEENEEVMTHSGLWRTCCLEGNFKGLCKQIDHFPEDADYEADTAEYFLRAVRASSIFPILSVILLFMGGLCIAASEFYKTRHNIILSAGIFFVSAGLSNIIGIIVYISANAGDPSKSDSKKNSYSYGWSFYFGALSFIIAEMVGVLAVHMFIDRHKQLRATARATDYLQASAITRIPSYRYRYQRRSRSSSRSTEPSHSRDASPVGVKGFNTLPSTEISMYTLSRDPLKAATTPTATYNSDRDNSFLQVHNCIQKDSKDSLHANTANRRTTPV | 4 γ2(KKEE) per A2iQ tetramer | 
rat GluA2 flip(Q) isoform N619K mutant, FLAG-tagged (receptor, UniProt P19491-2 22-883, looked up) VSSNSIQIGGLFPRGADQEYSAFRVGMVQFSTSEFRLTPHIDNLEVANSFAVTNAFCSQFSRGVYAIFGFYDKKSVNTITSFCGTLHVSFITPSFPTDGTHPFVIQMRPDLKGALLSLIEYYQWDKFAYLYDSDRGLSTLQAVLDSAAEKKWQVTAINVGNINNDKKDETYRSLFQDLELKKERRVILDCERDKVNDIVDQVITIGKHVKGYHYIIANLGFTDGDLLKIQFGGANVSGFQIVDYDDSLVSKFIERWSTLEEKEYPGAHTATIKYTSALTYDAVQVMTEAFRNLRKQRIEISRRGNAGDCLANPAVPWGQGVEIERALKQVQVEGLSGNIKFDQNGKRINYTINIMELKTNGPRKIGYWSEVDKMVVTLTELPSGNDTSGLENKTVVVTTILESPYVMMKKNHEMLEGNERYEGYCVDLAAEIAKHCGFKYKLTIVGDGKYGARDADTKIWNGMVGELVYGKADIAIAPLTITLVREEVIDFSKPFMSLGISIMIKKPQKSKPGVFSFLDPLAYEIWMCIVFAYIGVSVVLFLVSRFSPYEWHTEEFEDGRETQSSESTNEFGIFNSLWFSLGAFMQQGCDISPRSLSGRIVGGVWWFFTLIIISSYTAKLAAFLTVERMVSPIESAEDLSKQTEIAYGTLDSGSTKEFFRRSKIAVFDKMWTYMRSAEPSVFVRTTAEGVARVRKSKGKYAYLLESTMNEYIEQRKPCDTMKVGGNLDSKGYGIATPKGSSLGTPVNLAVLKLSEQGVLDKLKNKWWYDKGECGAKDSGSKEKTSALSLSNVAGVFYILVGGLGLAMLVALIEFCYKSRAEAKRMKVAKNPQNINPSSSQNSQNFATYKEGYNVYGIESVKI |  | binds
